B1: Myotubularin-related protein 9 (Homo sapiens), Q96QG7 (parent)
chain: MEFAELIKTPRVDNVVLHRPFYPAVEGTLCLTGHHLILSSRQDNTEELWLLHSNIDAIDKRFVGSLGTIIIKCKDFRIIQLDIPGMEECLNIASSIEALSTLDSITLMYPFFYRPMFEVIEDGWHSFLPEQEFELYSSATSEWRLSYVNKEFAVCPSYPPIVTVPKSIDDEALRKVATFRHGGRFPVLSYYHKKNGMVIMRSGQPLTGTNGRRCKEDEKLINATLRAGKRGYIIDTRSLNVAQQTRAKGGGFEQEAHYPQWRRIHKSIERYHILQESLIKLVEACNDQTHNMDRWLSKLEASNWLTHIKEILTTACLAAQCIDREGASILIHGTEGTDSTLQVTSLAQIILEPRSRTIRGFEALIEREWLQAGHPFQQRCAQSAYCNTKQKWEAPVFLLFLDCVWQILRQFPCSFEFNENFLIMLFEHAYASQFGTFLGNNESERCKLKLQQKTMSLWSWVNQPSELSKFTNPLFEANNLVIWPSVAPQSLPLWEGIFLRWNRSSKYLDEAYEEMVNIIEYNKELQAKVNILRRQLAELETEDGMQESP
partner: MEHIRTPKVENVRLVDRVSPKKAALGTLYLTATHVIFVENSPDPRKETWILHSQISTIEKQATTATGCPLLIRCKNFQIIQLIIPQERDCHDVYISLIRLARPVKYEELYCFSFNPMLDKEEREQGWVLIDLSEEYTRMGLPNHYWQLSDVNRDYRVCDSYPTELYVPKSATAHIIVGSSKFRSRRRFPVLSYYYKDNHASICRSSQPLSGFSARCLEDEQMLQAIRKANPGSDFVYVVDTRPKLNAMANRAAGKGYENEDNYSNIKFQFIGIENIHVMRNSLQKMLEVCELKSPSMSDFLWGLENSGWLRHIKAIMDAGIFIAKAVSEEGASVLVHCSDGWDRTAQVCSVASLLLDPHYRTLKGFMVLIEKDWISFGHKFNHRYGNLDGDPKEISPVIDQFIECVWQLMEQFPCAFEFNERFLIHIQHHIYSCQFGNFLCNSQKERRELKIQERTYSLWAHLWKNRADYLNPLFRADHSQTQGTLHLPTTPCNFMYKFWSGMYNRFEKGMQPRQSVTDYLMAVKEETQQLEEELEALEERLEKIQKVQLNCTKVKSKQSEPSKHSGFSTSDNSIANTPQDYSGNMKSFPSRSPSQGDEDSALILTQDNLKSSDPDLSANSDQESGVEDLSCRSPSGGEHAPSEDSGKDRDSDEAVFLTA
B2: Ligand of Numb protein X 2 (Homo sapiens), Q8N448 (parent)
chain: MGTTSDEMVSVEQTSSSSLNPLCFECGQQHWTRENHLYNYQNEVDDDLVCHICLQPLLQPLDTPCGHTFCYKCLRNFLQEKDFCPLDRKRLHFKLCKKSSILVHKLLDKLLVLCPFSSVCKDVMQRCDLEAHLKNRCPGASHRRVALERRKTSRTQAEIENENGPTLLDPAGTLSPEADCLGTGAVPVERHLTSASLSTWSEEPGLDNPAFEESAGADTTQQPLSLPEGEITTIEIHRSNPYIQLGISIVGGNETPLINIVIQEVYRDGVIARDGRLLAGDQILQVNNYNISNVSHNYARAVLSQPCNTLHLTVLRERRFGNRAHNHSDSNSPREEIFQVALHKRDSGEQLGIKLVRRTDEPGVFILDLLEGGLAAQDGRLSSNDRVLAINGHDLKYGTPELAAQIIQASGERVNLTIARPGKPQPGNTIREAGNHSSSSQHHTPPPYYSRPSSHKDLTQCVTCQEKHITVKKEPHESLGMTVAGGRGSKSGELPIFVTSVPPHGCLARDGRIKRGDVLLNINGIDLTNLSHSEAVAMLKASAASPAVALKALEVQIVEEATQNAEEQPSTFSENEYDASWSPSWVMWLGLPSTLHSCHDIVLRRSYLGSWGFSIVGGYEENHTNQPFFIKTIVLGTPAYYDGRLKCGDMIVAVNGLSTVGMSHSALVPMLKEQRNKVTLTVICWPGSLV
partner: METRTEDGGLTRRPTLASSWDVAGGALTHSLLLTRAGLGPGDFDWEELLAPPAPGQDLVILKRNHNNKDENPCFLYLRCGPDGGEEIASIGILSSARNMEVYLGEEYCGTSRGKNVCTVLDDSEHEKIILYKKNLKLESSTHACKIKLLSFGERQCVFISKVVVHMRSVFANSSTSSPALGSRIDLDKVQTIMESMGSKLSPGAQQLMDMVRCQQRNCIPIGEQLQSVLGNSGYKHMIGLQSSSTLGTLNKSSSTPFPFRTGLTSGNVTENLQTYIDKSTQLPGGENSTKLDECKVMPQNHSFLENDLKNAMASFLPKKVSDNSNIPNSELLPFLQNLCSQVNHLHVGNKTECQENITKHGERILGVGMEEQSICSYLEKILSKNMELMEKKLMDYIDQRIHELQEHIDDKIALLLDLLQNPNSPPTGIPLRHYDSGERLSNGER
B3: Glutaredoxin-3 (Homo sapiens), O76003 (parent)
chain: MAAGAAEAAVAAVEEVGSAGQFEELLRLKAKSLLVVHFWAPWAPQCAQMNEVMAELAKELPQVSFVKLEAEGVPEVSEKYEISSVPTFLFFKNSQKIDRLDGAHAPELTKKVQRHASSGSFLPSANEHLKEDLNLRLKKLTHAAPCMLFMKGTPQEPRCGFSKQMVEILHKHNIQFSSFDIFSDEEVRQGLKAYSSWPTYPQLYVSGELIGGLDIIKELEASEELDTICPKAPKLEERLKVLTNKASVMLFMKGNKQEAKCGFSKQILEILNSTGVEYETFDILEDEEVRQGLKAYSNWPTYPQLYVKGELVGGLDIVKELKENGELLPILRGEN
partner: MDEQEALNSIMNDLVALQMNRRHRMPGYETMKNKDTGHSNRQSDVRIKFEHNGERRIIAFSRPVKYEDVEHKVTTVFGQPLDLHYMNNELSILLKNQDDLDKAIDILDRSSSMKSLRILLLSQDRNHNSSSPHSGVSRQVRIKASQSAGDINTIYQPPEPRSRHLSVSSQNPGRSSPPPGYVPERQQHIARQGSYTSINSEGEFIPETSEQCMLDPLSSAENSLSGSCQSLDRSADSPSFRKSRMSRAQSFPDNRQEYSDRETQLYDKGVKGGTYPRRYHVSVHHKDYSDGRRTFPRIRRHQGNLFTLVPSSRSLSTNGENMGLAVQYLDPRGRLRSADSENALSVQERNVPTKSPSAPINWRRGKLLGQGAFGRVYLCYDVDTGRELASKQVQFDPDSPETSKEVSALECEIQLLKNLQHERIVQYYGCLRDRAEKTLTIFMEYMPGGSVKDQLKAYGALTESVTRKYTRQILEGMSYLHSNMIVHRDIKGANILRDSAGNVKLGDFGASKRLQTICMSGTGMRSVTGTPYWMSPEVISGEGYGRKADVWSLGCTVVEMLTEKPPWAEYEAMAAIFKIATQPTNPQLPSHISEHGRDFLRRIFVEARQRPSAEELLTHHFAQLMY
B4: Protein arginine N-methyltransferase 8 (Homo sapiens), Q9NR22 (parent)
chain: MGMKHSSRCLLLRRKMAENAAESTEVNSPPSQPPQPVVPAKPVQCVHHVSTQPSCPGRGKMSKLLNPEEMTSRDYYFDSYAHFGIHEEMLKDEVRTLTYRNSMYHNKHVFKDKVVLDVGSGTGILSMFAAKAGAKKVFGIECSSISDYSEKIIKANHLDNIITIFKGKVEEVELPVEKVDIIISEWMGYCLFYESMLNTVIFARDKWLKPGGLMFPDRAALYVVAIEDRQYKDFKIHWWENVYGFDMTCIRDVAMKEPLVDIVDPKQVVTNACLIKEVDIYTVKTEELSFTSAFCLQIQRNDYVHALVTYFNIEFTKCHKKMGFSTAPDAPYTHWKQTVFYLEDYLTVRRGEEIYGTISMKPNAKNVRDLDFTVDLDFKGQLCETSVSNDYKMR
partner: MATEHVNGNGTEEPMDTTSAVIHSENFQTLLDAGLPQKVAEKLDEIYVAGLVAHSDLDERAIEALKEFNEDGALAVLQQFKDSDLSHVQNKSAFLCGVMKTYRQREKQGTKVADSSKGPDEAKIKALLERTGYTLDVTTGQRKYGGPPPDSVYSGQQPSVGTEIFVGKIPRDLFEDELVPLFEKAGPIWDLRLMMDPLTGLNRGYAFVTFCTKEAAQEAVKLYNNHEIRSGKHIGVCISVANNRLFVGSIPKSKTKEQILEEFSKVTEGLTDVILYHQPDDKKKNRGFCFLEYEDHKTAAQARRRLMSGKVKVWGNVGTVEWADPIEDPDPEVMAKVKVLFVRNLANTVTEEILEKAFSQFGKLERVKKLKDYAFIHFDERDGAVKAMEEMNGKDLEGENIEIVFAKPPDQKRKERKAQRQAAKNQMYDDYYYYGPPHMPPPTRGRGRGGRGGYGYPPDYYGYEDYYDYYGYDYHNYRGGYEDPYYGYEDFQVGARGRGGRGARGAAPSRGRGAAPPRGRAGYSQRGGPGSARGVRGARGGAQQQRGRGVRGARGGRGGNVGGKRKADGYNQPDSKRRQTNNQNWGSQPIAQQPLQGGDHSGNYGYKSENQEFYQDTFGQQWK
B5: Glutaredoxin-3 (Homo sapiens), O76003 (parent)
chain: B3 chain
partner: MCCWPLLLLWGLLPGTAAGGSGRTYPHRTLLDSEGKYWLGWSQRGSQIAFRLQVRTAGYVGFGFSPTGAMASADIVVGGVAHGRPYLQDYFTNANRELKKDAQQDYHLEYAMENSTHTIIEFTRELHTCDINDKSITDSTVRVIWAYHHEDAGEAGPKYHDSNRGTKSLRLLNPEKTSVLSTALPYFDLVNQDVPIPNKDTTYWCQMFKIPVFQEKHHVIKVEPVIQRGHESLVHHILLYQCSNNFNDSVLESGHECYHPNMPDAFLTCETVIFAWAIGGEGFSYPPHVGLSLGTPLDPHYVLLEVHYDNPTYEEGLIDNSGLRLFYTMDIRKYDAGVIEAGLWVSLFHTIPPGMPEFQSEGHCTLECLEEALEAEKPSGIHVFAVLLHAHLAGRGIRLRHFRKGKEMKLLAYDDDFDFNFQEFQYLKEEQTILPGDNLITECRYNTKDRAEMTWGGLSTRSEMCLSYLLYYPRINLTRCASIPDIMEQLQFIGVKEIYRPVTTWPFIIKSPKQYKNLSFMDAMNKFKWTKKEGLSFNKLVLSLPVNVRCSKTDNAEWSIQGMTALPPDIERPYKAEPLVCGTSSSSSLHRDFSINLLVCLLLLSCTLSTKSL
B6: BTB/POZ domain-containing protein KCTD14 (Homo sapiens), Q9BQ13 (parent)
chain: MWQGCAVERPVGRMTSQTPLPQSPRPRRPTMSTVVELNVGGEFHTTTLGTLRKFPGSKLAEMFSSLAKASTDAEGRFFIDRPSTYFRPILDYLRTGQVPTQHIPEVYREAQFYEIKPLVKLLEDMPQIFGEQVSRKQFLLQVPGYSENLELMVRLARAEAITARKSSVLVCLVETEEQDAYYSEVLCFLQDKKMFKSVVKFGPWKAVLDNSDLMHCLEMDIKAQGYKVFSKFYLTYPTKRNEFHFNIYSFTFTWW

Variants of: B1
Conditions: with mtmr7_human MTMR7, Q9Y216

effect of a mutation on the interaction	Variant
with no effect	R359S

Variants of: B2
Conditions: with paat_human PAAT

effect of a mutation on the interaction	Variant
with no effect	P669A

Variants of: B3
Conditions: with m3k3_human MAP3K3, Q99759

effect of a mutation on the interaction	Variant
with no effect	P145A

Variants of: B4
Conditions: with hnrpq_human SYNCRIP

effect of a mutation on the interaction	Variant
with no effect	R350S

Variants of: B5
Conditions: with moxd1_human MOXD1, Q6UVY6

effect of a mutation on the interaction	Variant
with no effect	P145A

Variants of: B6
Conditions: with stk16_human STK16, O75716
Chain of stk16_human STK16, O75716 (O75716 whole entry): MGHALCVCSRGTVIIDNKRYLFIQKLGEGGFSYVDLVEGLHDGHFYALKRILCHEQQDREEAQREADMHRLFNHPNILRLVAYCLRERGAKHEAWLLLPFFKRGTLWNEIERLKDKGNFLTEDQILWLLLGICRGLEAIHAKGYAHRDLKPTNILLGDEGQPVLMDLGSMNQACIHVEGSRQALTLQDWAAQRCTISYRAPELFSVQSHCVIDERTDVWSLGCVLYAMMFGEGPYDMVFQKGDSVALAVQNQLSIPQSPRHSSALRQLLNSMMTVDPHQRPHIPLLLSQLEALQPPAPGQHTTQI

effect of a mutation on the interaction	Variant
disrupting interaction strength	V168M

— IntAct's records for PubMed 29892012
